We go through 41 substances from US20120172293A1 (Takeda / Millennium, published 2012).

The target in test [1] is human Y2 receptor (human) (UniProt P49146). Nature of the test: cell-based or functional assay.
Test [2] shares this target. The test can be described thus: RBA: displacement of [125I]-PYY from hY2R/CHO membranes.

Sequence of human Y2 receptor (human) (P49146 whole entry): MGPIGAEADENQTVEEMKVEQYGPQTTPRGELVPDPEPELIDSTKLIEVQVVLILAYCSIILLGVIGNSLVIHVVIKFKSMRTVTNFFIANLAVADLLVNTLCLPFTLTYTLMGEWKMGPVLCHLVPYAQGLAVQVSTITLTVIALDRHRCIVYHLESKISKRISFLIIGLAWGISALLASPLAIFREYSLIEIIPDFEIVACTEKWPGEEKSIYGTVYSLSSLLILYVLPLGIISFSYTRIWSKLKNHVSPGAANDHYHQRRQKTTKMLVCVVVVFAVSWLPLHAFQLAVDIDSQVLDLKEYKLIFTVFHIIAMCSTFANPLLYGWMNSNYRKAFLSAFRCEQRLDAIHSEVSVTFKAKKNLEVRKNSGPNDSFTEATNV

Consider “(Tetrahydro-2H-pyran-4-yl)carbonyl-[D-Pro24, Pya(4)26, Cha27,36, Aib28,31, Lys30]-PYY(23-36) (peptide)”, for which the GBA EC50 Ratio ([35S]GTPγS binding) (EC50 compound/EC50 PYY(3-36)) in test [1] turned out to be 0.71. In addition, in test [2], the IC50 Ratio (IC50 compound/IC50 PYY(3-36)) stood at 1.1.
On the same counts, the results for “Ac-[D-Pro24, Pya(4)26, Cha27, Aib28,31, Lys30, Phe(3Me)36]-PYY(23-36) (peptide)” are 1.2 and 0.91.
On to “Ac-[D-Pro24, Pya(4)26, Ala(4Pip)27, Aib28,31, Lys30, Cha36]-PYY(23-36) former peak (peptide)”, for which, in test [1], the GBA EC50 Ratio ([35S]GTPγS binding) (EC50 compound/EC50 PYY(3-36)) came to 11. Moreover, in test [2], the IC50 Ratio (IC50 compound/IC50 PYY(3-36)) turned out to be 17.
In the same order, the values of “Ac-[D-Pro24, Pya(4)26, Nal(2)27, Aib28,31, Lys30, Cha36]-PYY(23-36) (peptide)” are 4 and 7.2.
In the same order, the values of “(3-carboxypropyl)carbamoyl-[D-Pro24, Pya(4)26, Cha27,36, Aib28,31, Lys30]-PYY(23-36) (peptide)” are 0.97 and 1.2.
In the same order, the values of “Ac-[D-Pro24, Pya(4)26, Cha27,36, D-Iva28,31, Lys30]-PYY(23-36) (peptide)” are 1.6 and 0.7.
Turning to “[(1S)-1-Carboxy-2-(4-hydroxyphenyl)ethyl]carbamoyl-[D-Pro24, Pya(4)26, Cha27,36, Aib28,31, Lys30]-PYY(23-36) (peptide)”, the GBA EC50 Ratio ([35S]GTPγS binding) (EC50 compound/EC50 PYY(3-36)) in test [1] was determined as 1.2. Also, the IC50 Ratio (IC50 compound/IC50 PYY(3-36)) in test [2] was 0.95.
As to “Isobutanoyl-[D-Pro24, Pya(4)26, Cha27,36, Aib28,31, Lys30]-PYY(23-36) (peptide)”, the GBA EC50 Ratio ([35S]GTPγS binding) (EC50 compound/EC50 PYY(3-36)) in test [1] came out at 0.89. In test [2], the IC50 Ratio (IC50 compound/IC50 PYY(3-36)) worked out at 0.79.
For the substance “4-Imidazolecarbonyl-[D-Hyp24, Iva25,28, Pya(4)26, Cha27,36, Lys30, Aib31]-PYY(23-36) (peptide)”, the GBA EC50 Ratio ([35S]GTPγS binding) (EC50 compound/EC50 PYY(3-36)) in test [1] is 1.3. In test [2], the IC50 Ratio (IC50 compound/IC50 PYY(3-36)) was 0.99.
Turning to “Ac-[D-Pro24, Pya(4)26, Nal(1)27, Aib28,31, Lys30, Cha36]-PYY(23-36) (peptide)”, the GBA EC50 Ratio ([35S]GTPγS binding) (EC50 compound/EC50 PYY(3-36)) in test [1] was 1.7. Further, the IC50 Ratio (IC50 compound/IC50 PYY(3-36)) in test [2] came out at 2.9.
In the same order, the values of “Morpholinocarbonyl-[D-Pro24, Pya(4)26, Cha27,36, Aib28,31, Lys30]-PYY(23-36) (peptide)” are 0.57 and 0.89.
On the same counts, the results for “[(1S)-1-carboxy-2-hydroxyethyl]carbamoyl-[D-Pro24, Pya(4)26, Cha27,36, Aib28,31, Lys30]-PYY(23-36) (peptide)” are 1.3 and 0.52.
Consider “Ac-[D-Pro24, Pya(4)26, Cha27,36, Aib28,31, Lys(Me2)30]-PYY(23-36) (peptide)”, for which the GBA EC50 Ratio ([35S]GTPγS binding) (EC50 compound/EC50 PYY(3-36)) in test [1] turned out to be 1.7. Besides, in test [2], the IC50 Ratio (IC50 compound/IC50 PYY(3-36)) came out at 1.1.
On the same counts, the results for “Ac-[D-Pro24, Pya(4)26, Cha27,36, Aib28, Lys30, D-Iva31]-PYY(23-36) (peptide)” are 1.6 and 0.55.
As to “Ac-[D-Pro24, Nar25, Pya(4)26, Cha27,36, Aib28,31, Lys30]-PYY(23-36) (peptide)”, in test [1], the GBA EC50 Ratio ([35S]GTPγS binding) (EC50 compound/EC50 PYY(3-36)) turned out to be 1.8. Further, in test [2], the IC50 Ratio (IC50 compound/IC50 PYY(3-36)) stood at 1.1.
As for “Ac-[D-Pro24, Pya(4)26, Cha27,36, Iva28, Lys30, D-Iva31]-PYY(23-36) (peptide)”, in test [1], the GBA EC50 Ratio ([35S]GTPγS binding) (EC50 compound/EC50 PYY(3-36)) worked out at 0.67. For the same substance, the IC50 Ratio (IC50 compound/IC50 PYY(3-36)) in test [2] was found to be 0.36.
As to “Ac-[D-Hyp24, Pya(4)26, Cha27,36, Aib28,31, Lys30]-PYY(23-36) (peptide)”, in test [1], the GBA EC50 Ratio ([35S]GTPγS binding) (EC50 compound/EC50 PYY(3-36)) is 0.86. The IC50 Ratio (IC50 compound/IC50 PYY(3-36)) in test [2] turned out to be 1.1.
In the same order, the values of “3-Carboxypropionyl-[D-Hyp24, Iva25, Pya(4)26, Cha27,36, Leu(Me)28, Lys30, Aib31]-PYY(23-36) (peptide)” are 1.9 and 0.92.
In the same order, the values of “4-Pyridinecarbonyl-[D-Hyp24, Iva25,28, Pya(4)26, Cha27,36, Lys30, Aib31]-PYY(23-36) (peptide)” are 1.6 and 1.3.
On the same counts, the results for “Ac-[D-Pro24, Pya(4)26, Cha27,36, Aib28,31, Ala(4-pip)30]-PYY(23-36) (peptide)” are 0.8 and 0.72.
For “Ac-[Dap22, D-Pro24, Pya(4)26, Cha27,36, Aib28,31, Lys30]-PYY(22-36) (peptide)”, the GBA EC50 Ratio ([35S]GTPγS binding) (EC50 compound/EC50 PYY(3-36)) in test [1] was determined as 1.6. In addition, the IC50 Ratio (IC50 compound/IC50 PYY(3-36)) in test [2] was 1.2.
Take “3-Carboxypropionyl-[D-Pro24, Pya(4)26, Cha27,36, Aib28,31, Lys30]-PYY(23-36) (peptide)”: the GBA EC50 Ratio ([35S]GTPγS binding) (EC50 compound/EC50 PYY(3-36)) in test [1] came out at 1.2. Besides, the IC50 Ratio (IC50 compound/IC50 PYY(3-36)) in test [2] turned out to be 0.96.
Take “(cis-2,6-Dimethylmorpholin-4-yl)carbonyl-[D-Pro24, Pya(4)26, Cha27,36, Aib28,31, Lys30]-PYY(23-36) (peptide)”: the GBA EC50 Ratio ([35S]GTPγS binding) (EC50 compound/EC50 PYY(3-36)) in test [1] stood at 0.65. In addition, the IC50 Ratio (IC50 compound/IC50 PYY(3-36)) in test [2] amounted to 0.91.
For the substance “[(1S)-1-Carboxyethyl]carbamoyl-[D-Pro24, Pya(4)26, Cha27,36, Aib28,31, Lys30]-PYY(23-36) (peptide)”, the GBA EC50 Ratio ([35S]GTPγS binding) (EC50 compound/EC50 PYY(3-36)) in test [1] was determined as 0.94. In addition, the IC50 Ratio (IC50 compound/IC50 PYY(3-36)) in test [2] is 0.78.
On the same counts, the results for “Ac-[D-Pro24, Pya(4)26, Cha27,36, D-Iva28, Lys30, Aib31]-PYY(23-36) (peptide)” are 2.6 and 1.7.
Regarding “Ac-[D-Pro24, Pya(4)26, Phe(4F)27, Aib28,31, Lys30, Cha36]-PYY(23-36) (peptide)”, the GBA EC50 Ratio ([35S]GTPγS binding) (EC50 compound/EC50 PYY(3-36)) in test [1] stood at 3.9. The IC50 Ratio (IC50 compound/IC50 PYY(3-36)) in test [2] amounted to 10.
On to “4-Imidazolecarbonyl-[D-Pro24, Pya(4)26, Cha27,36, Aib28,31, Lys30]-PYY(23-36) (peptide)”, for which the GBA EC50 Ratio ([35S]GTPγS binding) (EC50 compound/EC50 PYY(3-36)) in test [1] was determined as 1.1. In addition, the IC50 Ratio (IC50 compound/IC50 PYY(3-36)) in test [2] came to 0.76.
On the same counts, the results for “Ac-[D-Pro24, Pya(4)26, Cha27,36, Aib28,31, Arg(Me)30]-PYY(23-36) (peptide)” are 1.2 and 1.1.
Take “Ac-[D-Pro24, Pya(4)26, Cha27,36, Aib28,31, Nle30]-PYY(23-36) (peptide)”: in test [1], the GBA EC50 Ratio ([35S]GTPγS binding) (EC50 compound/EC50 PYY(3-36)) was 1.4. Also, the IC50 Ratio (IC50 compound/IC50 PYY(3-36)) in test [2] is 0.96.
Take “Ac-[D-Pro24, Pya(4)26, Cha27,36, Aib28,31, Lys(Hexyl)30]-PYY(23-36) (peptide)”: in test [1], the GBA EC50 Ratio ([35S]GTPγS binding) (EC50 compound/EC50 PYY(3-36)) is 1.3. Also, the IC50 Ratio (IC50 compound/IC50 PYY(3-36)) in test [2] worked out at 1.
On the same counts, the results for “Ac-[D-Pro24, Har25, Pya(4)26, Cha27,36, Aib28,31, Lys30]-PYY(23-36) (peptide)” are 1.4 and 0.82.
On the same counts, the results for “4-Pyridinecarbonyl-[D-Hyp24, Iva25, Pya(4)26, Cha27,36, Leu(Me)28, Lys30, Aib31]-PYY(23-36) (peptide)” are 1.6 and 0.93.
In the same order, the values of “Ac-[D-Pro24, Pya(4)26, Cha27,36, Aib28,31, Orn30]-PYY(23-36) (peptide)” are 0.83 and 1.5.
On to “Tetrahydro-2H-pyran-4-yl-carbamoyl-[D-Pro24, Pya(4)26, Cha27,36, Aib28,31, Lys30]-PYY(23-36) (peptide)”, for which the GBA EC50 Ratio ([35S]GTPγS binding) (EC50 compound/EC50 PYY(3-36)) in test [1] turned out to be 0.61. The IC50 Ratio (IC50 compound/IC50 PYY(3-36)) in test [2] was found to be 0.52.
In the same order, the values of “(3-Carboxypropyl)carbamoyl-[D-Hyp24, Iva25, Pya(4)26, Cha27,36, Leu(Me)28, Lys30, Aib31]-PYY(23-36) (peptide)” are 1.7 and 0.57.
Take “4-Imidazolecarbonyl-[D-Hyp24, Iva25, Pya(4)26, Cha27,36, Aib28,31, Lys30]-PYY(23-36) (peptide)”: the GBA EC50 Ratio ([35S]GTPγS binding) (EC50 compound/EC50 PYY(3-36)) in test [1] was 0.92. Further, the IC50 Ratio (IC50 compound/IC50 PYY(3-36)) in test [2] is 1.3.
Consider “(Tetrahydro-2H-pyran-4-ylmethyl)carbamoyl-[D-Pro24, Pya(4)26, Cha27,36, Aib28,31, Lys30]-PYY(23-36) (peptide)”, for which the GBA EC50 Ratio ([35S]GTPγS binding) (EC50 compound/EC50 PYY(3-36)) in test [1] was found to be 0.7. The IC50 Ratio (IC50 compound/IC50 PYY(3-36)) in test [2] came out at 0.82.
With “Ac-[D-Pro24, Pya(4)26, Cha27,36, D-Iva28, Lys30, Iva31]-PYY(23-36) (peptide)”, in test [1], the GBA EC50 Ratio ([35S]GTPγS binding) (EC50 compound/EC50 PYY(3-36)) came to 1.1. In test [2], the IC50 Ratio (IC50 compound/IC50 PYY(3-36)) worked out at 3.4.
For “Ac-[D-Pro24, Pya(4)26, Cha27,36, Iva28, Lys30, Aib31]-PYY(23-36) (peptide)”, the GBA EC50 Ratio ([35S]GTPγS binding) (EC50 compound/EC50 PYY(3-36)) in test [1] turned out to be 1.2. Further, in test [2], the IC50 Ratio (IC50 compound/IC50 PYY(3-36)) stood at 0.33.
In the same order, the values of “4-Imidazolecarbonyl-[D-Hyp24, Iva25, Pya(4)26, Cha27,36, Leu(Me)28, Lys30, Aib31]-PYY(23-36) (peptide)” are 1.4 and 0.75.
On the same counts, the results for “(5-carboxypentyl)carbamoyl-[D-Pro24, Pya(4)26, Cha27,36, Aib28,31, Lys30]-PYY(23-36) (peptide)” are 1.5 and 1.2.
